# Assay results taken from US8962819B2, “Anti-C5 alpha antibodies” (Adienne S.A., priority 2002, dated 2015).
# Assays:
# [1] = target: T1, C5 (Homo sapiens, UniProt P01031); experiment: Haemolytic assay / TCC ELISA with EAC1-3b sheep erythrocytes and C5 depleted serum; format: biochemical; conditions: FIG. 1B
# T1 construct: C5 alpha and beta subunits were obtained by incubating 50 μg of C5; purchased Quidel
# Method: Panel A) The ELISA assay measures the amount of C5a fragment released in the supernatant after enzymatic cleavage of C5, using antibodies anti-C5 as described in example 6. […] Sheep erythrocytes sensitised with antibodies and coated until the C3b (EAC1-3b) complement step were added to the mixture of TS-A12 or TS-A12/22 and C5, and the mixture was further incubated for 30 minutes at 37° C. (panel B).
# Sheep erythrocytes (SBRC: Sheep red blood cells) were sensitised with sub-agglutinating amounts of rabbit IgM (EA). […]
# The obtained anti-C5 scFv fragments were further characterised for their ability to inhibit the hemolytic activity of C5 or, in other words, to block conversion of the C5 component to C5a. […] At the end of this procedure, cell lysis was measured as percentage of the control of total lysis in distilled H2O (see FIG. 1, panel B). The inhibition of C5a and TCC production by the scFv TS-A12 and TS-A12/22 was measured by means of ELISA using the monoclonal antibody 17/5 as the capture antibody and antibody G25/2 as detection antibody according to what has been described in Opperman et al., 1991, Complement Inflamm. […] The presence of TCC was measured using antibody aE11 as the capture antibody and a biotinylated anti-C5 antibody (SIGMA-ALDRICH®) followed by alkaline phosphatase-conjugated streptavidin, as described by Tedesco et al. (1997, J Exp. Med. 185:1619).
# [2] = target: T2, C5 beta chain (Homo sapiens, UniProt P01031); experiment: Immunoblotting on separated C5 chains; format: binding; conditions: 100 ng chain, FIG. 2 lane 2
# T2 construct: Lane 1: 100 ng of C5 alpha chain; lane 2: 100 ng of beta chain; purchased Quidel
# T2 sequence (P01031 19-673 limits assumed): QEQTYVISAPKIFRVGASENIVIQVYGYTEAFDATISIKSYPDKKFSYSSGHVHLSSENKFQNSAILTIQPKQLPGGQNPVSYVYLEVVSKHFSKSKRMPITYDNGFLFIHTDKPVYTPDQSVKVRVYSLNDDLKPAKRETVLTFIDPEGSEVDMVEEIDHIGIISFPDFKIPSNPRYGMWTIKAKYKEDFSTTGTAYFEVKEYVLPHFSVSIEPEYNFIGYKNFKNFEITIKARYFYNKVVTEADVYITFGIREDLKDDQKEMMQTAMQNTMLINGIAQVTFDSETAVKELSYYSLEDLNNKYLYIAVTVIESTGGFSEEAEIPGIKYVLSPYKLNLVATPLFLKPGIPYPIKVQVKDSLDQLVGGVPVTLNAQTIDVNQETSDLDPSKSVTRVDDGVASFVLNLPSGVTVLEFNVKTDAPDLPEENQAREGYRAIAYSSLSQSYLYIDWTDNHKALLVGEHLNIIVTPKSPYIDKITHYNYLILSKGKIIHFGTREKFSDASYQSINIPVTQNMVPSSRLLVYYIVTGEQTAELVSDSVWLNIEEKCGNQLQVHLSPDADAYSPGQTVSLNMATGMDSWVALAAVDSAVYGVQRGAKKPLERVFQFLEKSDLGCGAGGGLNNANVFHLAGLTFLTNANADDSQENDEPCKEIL
# Method: (§1) The alpha and beta chains of C5 were electrophoretically separated by means of SDS-PAGE in 10% polyacrylamide and then transferred onto nitrocellulose. […] Lane 1: 100 ng of C5 alpha chain; lane 2: 100 ng of beta chain; lane 3: mixture of the two chains. […] It can be seen that scFv TSA-12/22 recognises the alpha chain of C5 in lane 1, but not the beta chain in lane 2.
# (§2) Purified proteins. Purified components C4 to C9 were purchased from Quidel (Saint Diego, Calif.) and the human recombinant C5a component was purchased from SIGMA-ALDRICH® S.r.1. (Milan, Italy). C5 alpha and beta subunits were obtained by incubating 50 μg of C5 diluted in 0.55 M TRIS-HCl pH 8.1 containing DTT (0.02 M) for 30 min at room temperature (RT), followed by treatment with iodoacetamide (0.12 M) for 1 hour at RT. Alpha and beta chains were purified by gel filtration on Superose 12 (Pharmacia Biotech, Milan, Italy) in Fast Protein Liquid Chromatography (FPLC) and purity was assessed by SDS-PAGE in non-reducing conditions.
# (§3) It was first characterised, by means of the Western-blotting technique, whether the TS-A12/22 antibody recognises the alpha or beta of subunit of the C5 complement component prepared as described in Materials. Briefly the two subunits were electrophoresed in separate wells and transferred on nitrocellulose membranes. A solution containing Tris 50 mM pH 7.6, 0.5 M NaCl and 4% skimmed powder milk was used to block non-specific sites for 1 hour at 37° C. […] The enzymatic reaction was developed with blue tetrazolium and 5-bromo-4-chlorine-3-indolil phosphate (SIGMA-ALDRICH®, 0.30 mg/ml) diluted in 0.1 M Tris-HCl pH 9.5 containing 0.1 M NaCl and 5 mM MgCl2. Rainbow RPN 756 ([…]™ Italy (a trademark of General Electric Healthcare Limited)) were used as molecular weight markers.
# [3] = target: T3, C5 alpha chain (Homo sapiens, UniProt P01031); experiment: Immunoblotting on separated C5 chains; format: binding; conditions: 100 ng chain, FIG. 2 lane 1
# T3 construct: Lane 1: 100 ng of C5 alpha chain; lane 2: 100 ng of beta chain; purchased Quidel
# Method: as §1, §2, §3
# T1 sequence (P01031 678-1676 limits assumed, one chain of several): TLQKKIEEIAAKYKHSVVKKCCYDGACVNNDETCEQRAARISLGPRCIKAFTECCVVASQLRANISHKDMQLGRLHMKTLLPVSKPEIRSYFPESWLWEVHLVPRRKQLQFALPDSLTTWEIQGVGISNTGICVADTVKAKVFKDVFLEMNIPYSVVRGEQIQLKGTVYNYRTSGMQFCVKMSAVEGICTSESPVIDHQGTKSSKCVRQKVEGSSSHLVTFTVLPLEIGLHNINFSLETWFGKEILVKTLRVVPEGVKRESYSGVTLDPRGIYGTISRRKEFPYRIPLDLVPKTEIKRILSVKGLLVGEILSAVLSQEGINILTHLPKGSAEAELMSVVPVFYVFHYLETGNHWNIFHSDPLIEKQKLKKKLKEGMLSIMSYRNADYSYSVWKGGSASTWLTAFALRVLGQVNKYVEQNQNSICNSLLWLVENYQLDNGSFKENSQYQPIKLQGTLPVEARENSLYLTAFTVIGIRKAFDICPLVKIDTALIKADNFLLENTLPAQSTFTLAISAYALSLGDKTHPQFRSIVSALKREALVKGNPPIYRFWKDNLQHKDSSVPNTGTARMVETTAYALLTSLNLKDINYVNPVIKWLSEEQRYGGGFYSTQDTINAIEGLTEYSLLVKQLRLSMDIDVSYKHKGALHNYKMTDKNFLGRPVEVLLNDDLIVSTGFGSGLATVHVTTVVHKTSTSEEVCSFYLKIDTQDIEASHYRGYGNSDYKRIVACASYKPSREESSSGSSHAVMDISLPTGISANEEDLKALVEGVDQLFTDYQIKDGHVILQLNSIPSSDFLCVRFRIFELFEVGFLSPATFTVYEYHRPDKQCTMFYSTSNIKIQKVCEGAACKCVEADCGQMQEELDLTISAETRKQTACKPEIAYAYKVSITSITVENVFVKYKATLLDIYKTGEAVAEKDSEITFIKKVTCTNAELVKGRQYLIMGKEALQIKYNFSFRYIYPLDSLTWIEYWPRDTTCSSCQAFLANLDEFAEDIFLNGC
# T3 sequence (P01031 678-1676 limits assumed): as the sequence (P01031 678-1676 limits assumed, one chain of several) above
molecule,measurement,setting,value
"TS-A12/22: anti-C5 scFv obtained from TS-A12 by VL chain shuffling; VH3/V-48 and Vλ3/V2-14; amino acid sequence SEQ ID NO:6 (protein, listed as Homo sapiens) scFv: DIRMTQSPDSLAVSLGERATINCKSSQSVLYSSNNKNYLAWYQQKPGQPPKLLIYWASTRESGVPDRFSGSGSGTDFTLTISSLQAEDVAVYYCQQYYSTPQLTFGGRTKVDIKSGGSTITSYNVYYTKLSSSGTQVQLQQSEGGVVQPGRSLRLSCAASGFTFSSYGMNWVRQAPGKGLEWVSYISSSSSTIYYADSVKGRFTISRDNSKNTLYLQMNSLRAEDTAVYYCARGPGMDVWGQGTTVTVSS",inhibition of formation of TCC,[1],inhibit almost completely
same,recognition of C5 beta sub-unit,[2],does not recognise
same,recognition of C5 beta sub-unit,[2]; listed as TSA-12/22,not
same,recognition of C5 alpha sub-unit,[3],recognises
